Assay results: publication PMC6889417, “Derepression of LOXL4 inhibits liver cancer growth by reactivating compromised p53” (Cell Death and Differentiation, 2019)

Target: wild-type p53, endogenous (human (endogenous in SK-Hep1, HepG2), UniProt P04637 1-393)
Assay: cell-based or functional assay

Chain of wild-type p53, endogenous (P04637 whole entry): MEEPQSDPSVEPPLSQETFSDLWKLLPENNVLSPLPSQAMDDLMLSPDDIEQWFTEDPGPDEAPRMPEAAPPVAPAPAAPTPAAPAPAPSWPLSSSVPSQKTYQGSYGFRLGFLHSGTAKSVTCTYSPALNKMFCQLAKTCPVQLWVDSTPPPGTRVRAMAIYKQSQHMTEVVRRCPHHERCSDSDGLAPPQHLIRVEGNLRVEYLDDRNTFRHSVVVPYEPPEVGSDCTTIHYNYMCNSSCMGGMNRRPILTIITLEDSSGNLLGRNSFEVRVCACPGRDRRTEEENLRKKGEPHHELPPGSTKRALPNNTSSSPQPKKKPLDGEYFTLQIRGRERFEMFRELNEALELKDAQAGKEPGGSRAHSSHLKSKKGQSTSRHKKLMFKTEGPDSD

B1: lysyl oxidase-like 4 (LOXL4), endogenous (natural protein, UniProt Q96JB6 25-756, looked up)
chain: QSLGTTKLRLVGPESKPEEGRLEVLHQGQWGTVCDDNFAIQEATVACRQLGFEAALTWAHSAKYGQGEGPIWLDNVRCVGTESSLDQCGSNGWGVSDCSHSEDVGVICHPRRHRGYLSETVSNALGPQGRRLEEVRLKPILASAKQHSPVTEGAVEVKYEGHWRQVCDQGWTMNNSRVVCGMLGFPSEVPVDSHYYRKVWDLKMRDPKSRLKSLTNKNSFWIHQVTCLGTEPHMANCQVQVAPARGKLRPACPGGMHAVVSCVAGPHFRPPKTKPQRKGSWAEEPRVRLRSGAQVGEGRVEVLMNRQWGTVCDHRWNLISASVVCRQLGFGSAREALFGARLGQGLGPIHLSEVRCRGYERTLSDCPALEGSQNGCQHENDAAVRCNVPNMGFQNQVRLAGGRIPEEGLLEVQVEVNGVPRWGSVCSENWGLTEAMVACRQLGLGFAIHAYKETWFWSGTPRAQEVVMSGVRCSGTELALQQCQRHGPVHCSHGGGRFLAGVSCMDSAPDLVMNAQLVQETAYLEDRPLSQLYCAHEENCLSKSADHMDWPYGYRRLLRFSTQIYNLGRTDFRPKTGRDSWVWHQCHRHYHSIEVFTHYDLLTLNGSKVAEGHKASFCLEDTNCPTGLQRRYACANFGEQGVTVGCWDTYRHDIDCQWVDITDVGPGNYIFQVIVNPHYEVAESDFSNNMLQCRCKYDGHRVWLHNCHTGNSYPANAELSLEQEQRLRNNLI
expression of the p53 target genes PIG3 and BAX (quantitative real time PCR) after 5-aza-CR (5 μM, 16 h) in WT cells against 2DR cells: > 10 fold
